Laboratory results taken from the DeepSol protein solubility set.

Assay: soluble on expression in E. coli; label from the status in PepcDB or PDB records

Sequence | soluble on expression in E. coli
GMNSGKVAFIVTKNGKRICDVIDECSQRGSTILKAQGGYKQDDIQVVMCACNSKEMYQVRKSVKDTDPDSFIVVVESHEVHGEGFKMTNIGEAEN | not soluble
SLDFRDKVRNMDLQAGLYRHYKGQNYRVLGVARHSETEEALVIYQALYGEFGLWVRPLEMFTEAVEVDGEWVPRFVLVSPEADPLGLQKAPGGEDRA | soluble
MGHHHHHHGGHMSLKIYVVYDSEGEHTKVLAEAIAEGARENDAAEVFIDHVDQADIRKLKDMDAIIWGCPGHFGTISSGLKTWIDRLGYLWAEGELINKVGAVFCTTATTHGGLEMTMHNLITPMFHQGMIVVGLPGNVPENALYGSYYGAGVTCPVDSDELMSEEGIQLGRALGRRVSQVTGNLTAGQEGGS | soluble
MGNKRVLITGATGFIGGYLVDEALRRQYEVWAAVRPHSDRSRLTDSRIRFVEIDYRDPSDIARLADKIAPEGESAWHLVIHNAGITKARDTSLFREINAEQTKRFLIGLQGAKHCPERFVLMSSMGSYGAPPDDCQPLSSSSVPKPTTAYGESKLLAEQYVQTFVTIPYTIIQPTGVYGPHDQDYLMAIRSVDKGFDFSTGNTPQTLTFIYAEDLASAVFIAAEHPDAAGQKYIVSDGKEYTDIEFGRMIQHLLDRKNVCHLRIPLPLVKATCYIGQKWADISGTLTPLNLDKYAIIAQRNWRCDSSPIRAIGFSPRYNLEQGLAETIRWARTTGQIRR | not soluble
TDVDAFTLGEDLAYTPGDVIYQNDLIQLIQYKASTKKVNEVPLLFIPPFINKYYVLDMDEQKSLIKWAVGQGHTVFVISWINPDKTLSHKGFNDYMKEGPIASLDVIEELTKSKKVNVVGYCIGGTLLATTQSYLLAKGDTRINSLTFLTTLLDFEEPGEIGVYLSEKMLPFLKKDIKEKGLLDGRVLGLAFSMLRENSLFWSYFVNNYLKGKDPAPFDILYWNSDSSNLPAETFDFYMTNTYQENNLIKDGAVEVEGVPIELSKIDTPSYFLATIADHIVLWQASYKGAKALSGPTRFVLAGSGHL | not soluble
MNKFGAEKIFIEKQSGATITHRPIFQEALDFVRAQDIFIVEAIDRLGRNYDEIIDSVNYLKKKNVRLIITSLPIMAEAIGNPLLDKFIKDLIIQILAMIAEQERTESKRRQAQGIKIAKANGVYKGRPKLYSADTKDPQRRLVYKSIVQDLKNGVAISKIAKDYNITRQTIYRIKKEIHELEIN | not soluble
MENGIGYIPLLNVSHKHGGTHFYRKNSGTCDLCEKNFKTSEELVEHKKNYPRADVEKALSVYKEKDTIYKCLQCSGEFRLKEDFDYHQELHKRLGELKSASSNKSEANKDDESDIDSSFEIIEN | not soluble
MSLKTLTRFLIIPMLSVAFFSCSESHFLKDVAYRNQVTQDFEMKKQQLPNGELFAVFNEKLTIPEQEALMFLYAYMPTGDVTDYTGDYYLENVRLSDQARREMPWGKEIPDDVFRHFVLPIRVNNENLDDSRRVFYNELKDRVKNLSLHDAVLEVNHWCHEKVIYTPSDARTSAPLASVKTAYGRCGEESTFTVAALRSVGIPARQVYTPRWAHTDDNHAWVEAWVDGKWYFFGACEPEPVLNLGWFNAPASRGMLMHTKVFGRYTGEGHHHHHH | not soluble
SNAMKADILLVSHSKMITDGIKEMIEQMNASEEITIHSLGGTSDGSLGSDPMKIIDTINEADSDREFLIFADLGSAVLSSELAFDMLEEDQQKHYHLVDAPLVEGAFASAITAGVSDDLTQILAEAQNAGKKGWN | soluble
MIKSYKIRGTSLTVNRSDSYPDACNWTADSFGMLFYDPEYDLSTESLSITLDAGNDWVPEGGLVYESLPVKVTYENPEMMDYGTDWFNQGYSALGWNGEEYAYLGTDRGIVNILLEEDEKILYPNEEYDLKEGYTLKVTDLASDKACLTLSRNKLPVYSSIISPGKSADLGTHTFLYKKELNGVEVPLFSVYVDSVIQGDELSAVNLKHLLHFSDSPLELNYGKEYGELTIVETYPKLRLENKHVVWSGSDINVTEDIWIGRFEKKTAGNLFVTFYPYMNKVENVRSILPSVSSWSIPAMSIEEYLIGVLEHHHHHH | not soluble
AVIGMNEAASALTPSRVSSLPDTQRAAWQEYLARSEAQLSRDKASLAAELAPGQPLPPPPAEGKGADTMPLDKPAAWYTSKAARHVADVIVSFQTPAGGWGKNQPRDGALRLPGQHYTGENVAKVKSGSNDLDAARDRDWHYVGTIDNDATVTEIRFLAQVVSQLAPEEAAPYRDAALKGIEYLLASQFPNGGWPQVWPLEGGYHDAITYNDDALVHVAELLSDIAAGRDGFGFVPPAIRTRALEATNAAIHCIVETQVVQDGKRLGWGQQHDALTLRPTSARNFEPAALSSTESARILLFLMEIEAPSDAVKQAIRGGVAWLNTSVIRDRAWVKSDQGYQLVTEQGAKPLWSRFYSLDGNKPVFGDRDKTIHDDVMGISQERRTGYAWYTTSPQKALSAFTKWEKRS | soluble
MGSDKIHHHHHHMSIESILKNRSSTRAFLDKPVTKETLDLIFAHAQLSPSNCNVQPWQTCVVSGQTKDTLKQKFMQTLMSGASPNPDFNWLPQYQGVHRDRQFGSANALYSSIGVAREDKKARQMAMVRNWQFFDAPHAVFFTMDKYLDIMGAVDLGIYAQTLSLIMADHGISNCMQGALGQFPDPVREILNLPAERGILFGMSFGYADDSAAVNNTRTDREPIENAVAFFD | not soluble
MGHHHHHHSHMPPAAAGPLAGQPRKSSSSRRNAWGNLSYADLITKAIESSAEKRLTLSQIYEWMVKSVPYFKDKGDSNSSAGWKNSIRHNLSLHSKFIRVQNEGTGKSSWWMLNPEGGKSGKSPRRRAASMDNNSKFAKSRSRAAKKKA | soluble
MKIDTNFLCDLWMALFQFSNDENINEKECTALVDIMSLVEKVLVLKLQDDVPNIVKILAVLTDFGDSELPHSMDSLLRAYEPDLDNPIKKVA | not soluble
MRHTLPIAPQFYVTAPQSCPYLEGRLERKLFTALQGEHAQKLNDTLSKQGFRRSQNVLYRPSCAECSACLSARIRVADFEPTRTQRRVMKRNADLRRNATSPWATEDQYALFRRYLDDRHADGGMADMDIFEFAAMIEETPIRSRVIEYSRPGDTPSNRPLSAVCLTDIFDDGLSMVYSFYDPDLAGRSLGAYVILDHIEIAREAGLPYVYLGYWVPGSRKMGYKATYSALEIYKGGRWQAIGQPSDHRAELHPLSVDPIAEQVARISLPEARSGDRSRDLEHHHHHH | not soluble
MFFIMNYHIDWLTIEQDFGFEIPESILAAIFDFGMVGIHLDTGEMQEGIKTGKYRHKGSFCDEVSIKVSGSVIKMEGNPSRWGKVENVLGFTDVDSCVACFNNILFSLNLPLFTRCTEVFYLQGKEGEKVKKFSNGAIIKRLDITTNKSVGKGNERTFLKALSQMRYRNSVGRLHTNHCTVDWLSEKGNANLIYPSCYIKHEEMKLHSYDKIKNKFGQQAKEFQYYQKVFDYCLENGVVRFEQKLKSRYLQRENLCYWGLSDFSKLNEIQDGFINMYKKLSVSEVKLETIAQQLVSQGVVDTLRKANTTAYYAMRWSSGEDLSLLPIATFKRHRAILRKIGIDIANPCDIEKFQAVRVISCEQIFVKPFKAPDFYQYPSNMPQLRLVALEHHHHHH | not soluble
MNNPVVLDSKTELNEQTAQDVRLQLRQDADVQRIYNAVDIKDQLELIELGKEPSMEISRFADQILHTMSLSKIEDSGELLKQLGKIMDRFDSKDFAEEKSGFFSRMFKKADKMIEQIFSKYQTMGREIDKVYVEITKYQDEMKKSIGTLDGLYEQNLKYYLDLEKYVVAGEMLLERLNTELVPMYEERVRNNDQLAGIELESLKNSVEILEQRIDDLEKARMVALLTAPQIRMIQRGNNKLIGKINTAFITTIPIFKNGIIQAVNAKRQKLVADSMAELDRRTNELLKKNAQNIATQSVEVARLSGSSSIKMETLEETWNIISRGMQETQQIEEQNKREREESRKRMATLTENIKKELQG | not soluble
MGSDKIHHHHHHMFLEPFFTQTDETVTISPFQASEFAKRVAEDFNPIHDESAKRFCVPGDLLFALVLSHYGLSQKMQFKFEGMVGEGVCLNFPVEVGDSFPICDSRDKTYLSVSRQGDVSRCETQIESFVRSYVSFSGLNFIHVLVPMMREHGVMINPDRPLVIYESMAFDLTTLDFDQVALELSDARLSVDGKRGDVTLEFALISDGKQVGTGVKTLVMSGLRALDEAALDGMAQFYEERRATL | not soluble
MAHHHHHHMGTLEAQTQGPGSMKLAINGFGRIGRNVFKIAFERGIDIVAINDLTDPKTLAHLLKYDSTFGVYNKKVESRDGAIVVDGREIKIIAERDPKNLPWAKLGIDVVIESTGVFSSATSDKGGYLDHVNHAGAKKVILTVPAKDEIKTIVLGVNDHDINSDLKAVSNASCTTNCLAPLAKVLHESFGIEQGLMTTVHAYTNDQRILDLPHSDLRRARAAALSIIPTSTGAAKAVGLVLPELKGKLNGTSMRVPVPTGSIVDLTVQLKKKDVTKEEINSVLRKASETPELKGILGYTEDPIVSSDIKGNSHSSIVDGLETMVLENGFAKILSWYDNEFGYSTRVVDLAQKLVK | soluble
MGSDKIHHHHHHMVSCGGDGTLNEVVNGIVNTDLAIAVLPMGTGSDFGKTIGIRNISDFLKAIKSGRTREVDLVAAQFANQSRRYFINILEIGFGAEVMNYVNSHKYLGRGSFKFGAFYMLSKMHPFNLRLIMDGKEYEFPTIEAIFANGRYFGGGMLASPYSEIDDGLLDVHVLKPFSRIRSAMNFRTIYDGSYLNRRICA | not soluble
TKNWSWTASANAAWQKVRIKNLTLTPGAPSPDTEVGPWIDAYQMQVFSTDYAPYSFYLYKQLYDAETGQPIEGLYADLDGDGEITNKDRYHHHSPAPDWILGFSTSLRYKKWTLSTSLRANIGGYIFNGMAMNTGAWETMSYNDYQLNNLNRSFLDTRFTKRQFLSDHYLENASFLKMDNLQLSYDFGRIYKTIGLHASAMVQNVFTVTKYKGVDPETANGVDTSVYPRPRTYSITIGLNF | not soluble
MKIGLFYGSSTCYTEMTAEKIRAILGEELVDIHNVKESPLTLMSDYDLLLLGISTWDFGEIQEDWSAVWDHIGGVSLKNKYVALFGLGDQEGYGEWYLDAMGLLHDQIKKSGANLLGYWPNQGYHFEASKALTEDGSHFVGLALDEDSQYDLSDERIATWVEQVLTEYHDAI | not soluble
MIHSSVKRWGNSPAVRIPATLMQALNLNIDDEVKIDLVDGKLIIEPVRKEPVFTLAELVNDITPENLHENIDWGEPKDKEVW | soluble
MSLRMNAMKIISVNVGQPTALQVGQRTAVSGIRKHPVPGRVQVGEKGLEGDHVLNRRYHGGPDQAVYVYTREDYDHWTELLGRALEPGAFGENVLISGAESAEVRVGERFLLGAVEIEVTAPRLPCSTLGARMEDAGFVKRFKAARRPGFYARVLQSGDIGRGDPVTRTPAPDGAPTIGELFDADFAKSHDPAELRAWLTFPLGKRQRKEVEKWLAKAEGEGHHHHHH | soluble
DAAKSHAPVVRSMEASLSPELKRELSDGIECIGIGGGDLHTRIVWTQYGTLPHRVGDVQCRYRIVLLPQNADAPQGWQTVWQGARPRNKDSKFALIRKIGENI | not soluble
MVIRVFIASSSGFVAIKKKQQDVVRFLEANKIEFEEVDITMSEEQRQWMYKNVPPEKKPTQGNPLPPQIFNGDRYCGDYDSFFESKESNTVFSFLGLK | soluble
